This note sets out measurements from patent publication US12228572B2, “Enhanced expression of polo-like kinase 3 (PLK3) in human immunodeficiency virus (HIV)-infected cells” (priority 2021, dated 2025).

“And” between values parts separate entries of the source, which are not always exact repeats. Identical values can stand only once.

One test concerns HIV-1BaL. In words: Infectivity of supernatant from transfected 293T cells treated with pBaL, on TZM-bl cells. It is filed as cell-based. Particulars: 48 hours after transfection.
The next test relates to SIVagm. In words: Infectivity of supernatant from transfected 293T cells treated with pSIVagm, on TZM-bl cells. The format is cell-based. To be noted: 48 hours after transfection.
Test [1] deals with HIV-1.
In test [2] the test system is HIV-1. To be noted: overexpression of the PLK3 protein.
The test system of the next test is hepatitis B virus (HBV). In words: HBs ELISA of HBV virus particles in supernatant of 293T cells treated with HBV replicator. It is filed as cell-based. To be noted: overexpression in 293T cells, HBV driven by CMV promoter, 48 hours.
For another test, the system named is HIV-2ROD. Description: Infectivity of supernatant from transfected 293T cells treated with pHIV-2ROD, on TZM-bl cells. The format is cell-based. To be noted: 48 hours after transfection.
The test system of test [3] is HIV-1. This is another data set of the same source.
Another test has as its system HIV-1AD8. In words: Infectivity of supernatant from transfected 293T cells treated with pAD8, on TZM-bl cells. Particulars: 48 hours after transfection. The format is cell-based.
Another test has as its system HIV-189.6. Description: Infectivity of supernatant from transfected 293T cells treated with p89.6, on TZM-bl cells. To be noted: 48 hours after transfection. The format is cell-based.
For test [4], the system named is HIV-1. To be noted: overexpression of the PLK3 protein. From the text:
Specific test steps are as follows. All RNAs were extracted for qPCR to measure the Gag transcription level of HIV-1 (FIG. 4). Cells were collected for a flow cytometry test, and the expression level of an HIV-1 p24 protein was detected by using specific antibodies (FIG. 5).
This is another data set of the same source.

Test [5] has as its system HIV-1. Particulars: overexpression of the PLK3 protein. The source holds these as a separate data set.

B1: PLK3 protein: human PLK3 protein overexpressed from a 3× FLAG-labeled PLK3 protein expression vector (protein, UniProt Q9H4B4 1-646, looked up)
chain: MEPAAGFLSPRPFQRAAAAPAPPAGPGPPPSALRGPELEMLAGLPTSDPGRLITDPRSGRTYLKGRLLGKGGFARCYEATDTETGSAYAVKVIPQSRVAKPHQREKILNEIELHRDLQHRHIVRFSHHFEDADNIYIFLELCSRKSLAHIWKARHTLLEPEVRYYLRQILSGLKYLHQRGILHRDLKLGNFFITENMELKVGDFGLAARLEPPEQRKKTICGTPNYVAPEVLLRQGHGPEADVWSLGCVMYTLLCGSPPFETADLKETYRCIKQVHYTLPASLSLPARQLLAAILRASPRDRPSIDQILRHDFFTKGYTPDRLPISSCVTVPDLTPPNPARSLFAKVTKSLFGRKKKSKNHAQERDEVSGLVSGLMRTSVGHQDARPEAPAASGPAPVSLVETAPEDSSPRGTLASSGDGFEEGLTVATVVESALCALRNCIAFMPPAEQNPAPLAQPEPLVWVSKWVDYSNKFGFGYQLSSRRVAVLFNDGTHMALSANRKTVHYNPTSTKHFSFSVGAVPRALQPQLGILRYFASYMEQHLMKGGDLPSVEEVEVPAPPLLLQWVKTDQALLMLFSDGTVQVNFYGDHTKLILSGWEPLLVTFVARNRSACTYLASHLRQLGCSPDLRQRLRYALRLLRDRSPA
modifications: full-length 3xFLAG tag
notes: human PLK3 protein overexpressed from a 3× FLAG-labeled PLK3 protein expression vector
Consider B1, for which the “ability to limit infection with HIV-1BaL” value in the test with HIV-1BaL is “has an ability to limit infection”. For the same molecule, the “ability to limit infection with SIVagm” value in the test with SIVagm is “has an ability to limit infection”. Also, the “ability to block HIV-1 infection” value in the test with HIV-1 [1] is “extremely strong ability to block HIV-1 infection”. In addition, the “content of genomic RNA of the virus particles in cultured supernatant” value in the test with HIV-1 [2] is “greatly decreased”. Also, the “replication and release of the HBV” value in the test with hepatitis B virus (HBV) was “not affected”. The “ability to limit infection with HIV-2ROD” value in the test on HIV-2ROD is listed as “has an ability to limit infection”. In addition, in the test with HIV-1 [3] (293T cells with vs without PLK3 protein expression, maximum reduction, 48 hours after transfection), the “HIV infectivity reduced to fraction of original level” value is listed as “about 1/150”. In addition, in the test with HIV-1 [3] (different expression amounts, 293T cells, pNL4.3, 48 hours), the “HIV-1 infectivity as fraction of that of the negative control group” value was 1/11 and 1/115. Further, in the test with HIV-1AD8, the “ability to limit infection with HIV-1AD8” value is listed as “has an ability to limit infection”. Also, the “ability to limit infection with HIV-189.6” value with HIV-189.6 is listed as “has an ability to limit infection”. Moreover, in the test on HIV-1 [4], the “transcription level of virus Gag in cells” value is listed as “not affected” and the “virus Gag protein level” value is “obviously reduced”. Moreover, in the test with HIV-1 [5], the “content of core antigen p24 of virus particles in cultured supernatant” value is given as “greatly decreased”.
